How the values were obtained:
[1] = biological target: FcγRIIb, soluble extracellular domain (UniProt P31994); assay: SPR; IIb-Fold/IIaR-Fold (FcγRIIb against FcγRIIaR), relative to control v27293
[2] = biological target: FcγRIIaR, soluble extracellular domain (UniProt P12318); assay: SPR; fold change in affinity over control v27293 (Strategy 1 Launching Module)
[3] = biological target: FcγRIIb, soluble extracellular domain (UniProt P31994); assay: as above
[4] = biological target: FcγRIIaR, soluble extracellular domain (UniProt P12318); assay: SPR; fold change in affinity over wild-type v16463
[5] = biological target: FcγRIIb, soluble extracellular domain (UniProt P31994); assay: SPR; fold change in affinity over wild-type v16463
[6] = biological target: FcγRIIaR, soluble extracellular domain (UniProt P12318); assay: SPR (General Methods Protocol 2): one-armed antibody captured on immobilised HER2, soluble receptor as analyte
[7] = biological target: FcγRIIb, soluble extracellular domain (UniProt P31994); assay: as above
[8] = biological target: FcγRIIb, soluble extracellular domain (UniProt P31994); assay: SPR; IIb-Fold/IIaR-Fold (FcγRIIb against FcγRIIaR), vs. wild-type v16463
[9] = biological target: Soluble FcγRIIb extracellular domain with C-terminal 10xHis tag (UniProt P31994); assay: SPR; IIb-Fold / IIaR-Fold
[10] = biological target: Soluble FcγRIIb extracellular domain with C-terminal 10xHis tag (UniProt P31994); assay: SPR; selectivity relative to control v27293
[11] = biological target: Soluble FcγRIIaR extracellular domain with C-terminal 10xHis tag (UniProt P12318); assay: SPR; fold change in affinity over WT v16463
[12] = biological target: Soluble FcγRIIb extracellular domain with C-terminal 10xHis tag (UniProt P31994); assay: SPR; fold change in affinity over WT v16463
[13] = biological target: Soluble FcγRIIaR extracellular domain with C-terminal 10xHis tag (UniProt P12318); assay: SPR, antibody captured on immobilised HER2, soluble receptor as analyte
[14] = biological target: Soluble FcγRIIb extracellular domain with C-terminal 10xHis tag (UniProt P31994); assay: as above
[15] = biological target: Soluble FcγRIIaR extracellular domain with C-terminal 10xHis tag (UniProt P12318); assay: SPR; fold relative to control v27293
[16] = biological target: Soluble FcγRIIb extracellular domain with C-terminal 10xHis tag (UniProt P31994); assay: SPR; fold relative to control v27293
[17] = biological target: Biotinylated FcγRIIb extracellular domain-Fc fusion (human IgG1 Fc with L234A_L235A_D265S) (human) (UniProt P31994); assay: competition electrochemiluminescence, antibody on HER2-coated plate, biotinylated FcγRIIb-Fc; competitor FcγRIIaR-Fc at 10x
[18] = biological target: FcγRIIaR (UniProt P12318); assay: SPR, antibody captured on immobilised HER2, receptor as analyte; fold affinity over WT v16463
[19] = biological target: FcγRIIb (UniProt P31994); assay: as above
[20] = biological target: FcγRIIb (UniProt P31994); assay: SPR; IIb-Fold divided by IIaR-Fold (FcγRIIb against FcγRIIaR)
[21] = biological target: FcγRIIaR, soluble extracellular domain (UniProt P12318); assay: SPR, Protocol 2; fold over wild-type v16463
[22] = biological target: FcγRIIb, soluble extracellular domain (UniProt P31994); assay: SPR, Protocol 2; fold over wild-type v16463
[23] = biological target: FcγRIIb, soluble extracellular domain (UniProt P31994); assay: SPR, Protocol 2; ratio of the fold on FcγRIIb to the fold on FcγRIIaR
[24] = biological target: Soluble FcγRIIaR extracellular domain with C-terminal 10xHis tag (UniProt P12318); assay: SPR (Biacore 4000); variant captured on HER2, receptor in solution
[25] = biological target: Soluble FcγRIIb extracellular domain with C-terminal 10xHis tag (UniProt P31994); assay: as above
[26] = biological target: Soluble FcγRIIb extracellular domain with C-terminal 10xHis tag (UniProt P31994); assay: SPR; IIb-Fold / IIaR-Fold (FcγRIIb against FcγRIIaR)
[27] = biological target: Soluble FcγRIIaR extracellular domain with C-terminal 10xHis tag (UniProt P12318); assay: SPR; fold affinity relative to control v27293
[28] = biological target: Soluble FcγRIIb extracellular domain with C-terminal 10xHis tag (UniProt P31994); assay: SPR; fold affinity relative to control v27293
[29] = biological target: Soluble FcγRIIaR extracellular domain with C-terminal 10xHis tag (UniProt P12318); assay: SPR; KD of WT v16463 / KD of variant
[30] = biological target: Soluble FcγRIIb extracellular domain with C-terminal 10xHis tag (UniProt P31994); assay: SPR; KD of WT v16463 / KD of variant
[31] = biological target: Soluble FcγRIIb extracellular domain with C-terminal 10xHis tag (UniProt P31994); assay: SPR; IIb selectivity relative to control v27293
[32] = biological target: Soluble FcγRIIaR extracellular domain with C-terminal 10×His tag (UniProt P12318); assay: SPR (Biacore 4000), antibody captured on immobilised HER2, receptor as analyte
[33] = biological target: Soluble FcγRIIb extracellular domain with C-terminal 10×His tag (UniProt P31994); assay: as above
[34] = biological target: Soluble FcγRIIb extracellular domain with C-terminal 10×His tag (UniProt P31994); assay: SPR; IIb-Fold / IIaR-Fold (FcγRIIb against FcγRIIaR)
[35] = biological target: Soluble FcγRIIaR extracellular domain with C-terminal 10×His tag (UniProt P12318); assay: SPR; KD of WT v16463 / KD of variant
[36] = biological target: Soluble FcγRIIb extracellular domain with C-terminal 10×His tag (UniProt P31994); assay: SPR; KD of WT v16463 / KD of variant
[37] = biological target: Biotinylated FcγRIIb extracellular domain-Fc fusion (human) (UniProt P31994); assay: competition electrochemiluminescence (MSD), antibody on HER2-coated plate, biotinylated FcγRIIb-Fc; competitor FcγRIIaR-Fc at 10x
[38] = biological target: FcγRIIb (UniProt P31994); assay: SPR (Protocol 2), against wild-type 16463
[39] = biological target: FcγRIIb (UniProt P31994); assay: SPR (Protocol 2); selectivity for FcγRIIb against FcγRIIaR
[40] = biological target: FcγRIIaR (UniProt P12318); assay: SPR (Protocol 2, Biacore 4000), antibody captured on immobilised HER2, FcγR as analyte
[41] = biological target: FcγRIIb (UniProt P31994); assay: as above
[42] = biological target: FcγRIIaR, soluble extracellular domain (UniProt P12318); assay: SPR; FcγRIIaR affinity fold relative to control v27294
[43] = biological target: FcγRIIb, soluble extracellular domain (UniProt P31994); assay: SPR; IIb-Fold/IIaR-Fold (FcγRIIb over FcγRIIaR, vs WT v16463)
[44] = biological target: FcγRIIb, soluble extracellular domain (UniProt P31994); assay: SPR; fold change in FcγRIIb affinity over WT v16463
[45] = biological target: FcγRIIb, soluble extracellular domain (UniProt P31994); assay: SPR; FcγRIIb affinity fold relative to control v27294
[46] = biological target: FcγRIIb, soluble extracellular domain (UniProt P31994); assay: SPR; IIb-Fold/IIaR-Fold relative to control v27294
[47] = biological target: FcγRIIaR, soluble extracellular domain (UniProt P12318); assay: SPR (Biacore 4000, Protocol 2): antibody captured on immobilised HER2, soluble receptor as analyte
[48] = biological target: FcγRIIb, soluble extracellular domain (UniProt P31994); assay: as above
[49] = biological target: FcγRIIaR, soluble extracellular domain (UniProt P12318); assay: SPR; fold change in FcγRIIaR affinity over WT v16463
[50] = biological target: FcγRIIaR (UniProt P12318); assay: SPR imaging (IBIS MX96), antibody spotted on chip, soluble receptor as analyte, kinetic fit, 25 C, pH 7.4
[51] = biological target: FcγRIIb (UniProt P31994); assay: as above
[52] = biological target: FcγRIIb (UniProt P31994); assay: derived from the SPRi KDs for FcγRIIb and FcγRIIaR, relative to WT
[53] = biological target: FcγRIIb, soluble extracellular domain (UniProt P31994); assay: SPR, Protocol 2; ratio of the fold on FcγRIIb to the fold on FcγRIIaR; the wild-type reference itself
[54] = biological target: FcγRIIaR, soluble extracellular domain (UniProt P12318); assay: SPR, Protocol 2; the wild-type reference itself
[55] = biological target: FcγRIIb, soluble extracellular domain (UniProt P31994); assay: SPR, Protocol 2; the wild-type reference itself
[56] = biological target: FcγRIIaR (UniProt P12318); assay: SPR (Biacore 4000, Protocol 2), one-armed antibody captured on immobilised HER2, soluble FcγR as analyte
[57] = biological target: FcγRIIb (UniProt P31994); assay: as above

## Variant 27293, Strategy 1 Launching Module 1 (A_G236N_G237A / B_G236D_G237F_S239D_S267V_H268D_Template 1), one-armed trastuzumab antibody
[1]
  IIb/IIaR Selectivity vs. Control: 1 fold
[2]
  IIaR-Fold vs. Control: 1 fold
[3]
  IIb-Fold vs. Control: 1 fold
[4]
  IIaR-Fold vs. WT: 35 fold
[5]
  IIb-Fold vs. WT: 415 fold
[6]
  Kd: 8.8 nM
[7]
  Kd: 3.5 nM
[8]
  IIb/IIaR Selectivity vs. WT: 11.8 fold

## Variant 27293, Launching Module 1 (A_G236N_G237A / B_G236D_G237F_S239D_S267V_H268D_Template_1), one-armed trastuzumab antibody
[9]
  IIb Selectivity: 11.8
[10]
  IIb Selectivity Fold wrt Control: 1 fold
[11]
  IIaR-fold: 35.2 fold
[12]
  IIb-Fold: 415 fold
[13]
  Kd: 8.8 nM
[14]
  Kd: 3.5 nM
[15]
  IIaR-Fold wrt Control: 1 fold
[16]
  IIb-Fold wrt Control: 1 fold
[17]
  ELISA (% of non-competed FcγRIIb signal in presence of 10x FcγRIIa): 70.8%

## Variant 27362, Strat 3 control (A_G236N_G237A / B_G236D_G237F_S239D_S267V_H268D) (antibody)
[18]
  IIaR-fold: 1 fold
[19]
  IIb-Fold: 9 fold
[20]
  IIb Selectivity: 9 fold

## Variant 18370 (S239D), one-armed trastuzumab antibody with heterodimeric IgG1 Fc
[21]
  IIaR-fold (fold change in affinity over wild-type): 3.8 fold
[22]
  IIb-fold (fold change in affinity over wild-type): 4.39 fold
[23]
  IIb/IIaR Selectivity (IIb-Fold/IIaR-Fold): 1.2

## v26133 (A_N236I_strat1), one-armed trastuzumab antibody
[24]
  Kd: 8.3 nM
[25]
  Kd: 2.5 nM
[26]
  IIb Selectivity: 15.7 fold
[27]
  IIaR-Fold wrt Control: 1.1 fold
[28]
  IIb-Fold wrt Control: 1.4 fold
[29]
  IIaR-fold: 37.3 fold
[30]
  IIb-Fold: 585 fold
[31]
  IIb Selectivity Fold wrt Control: 1.3 fold

## v12, IIb-specific comparator with symmetrical E233D_G237D_P238D_H268D_P271G_A330R (antibody)
[32]
  Kd: 220 nM
[33]
  Kd: 13 nM
[34]
  IIb Selectivity: 80.5 fold
[35]
  IIaR-fold: 1.4 fold
[36]
  IIb-Fold: 112 fold
[37]
  ELISA (% of non-competed FcγRIIb signal in presence of 10x FcγRIIa): 100%

## Variant 18372, control without loop replacement (chain B S239D_H268D), one-armed antibody Scaffold 2
[38]
  IIb-Fold (fold change in affinity over wild-type) (fold over wild-type): 29.3
[39]
  IIb/IIaR Selectivity: 1.4
[40]
  Kd: 17 nM
[41]
  Kd: 39 nM

## Variant 26725 (A_D270K_strat2), one-armed trastuzumab antibody with heterodimeric IgG1 Fc
[42]
  IIaR-Fold wrt Control: 0.3 fold
[43]
  IIb Selectivity: 12.5 fold
[44]
  IIb-Fold: 24.1 fold
[45]
  IIb-Fold wrt Control: 0.3 fold
[46]
  IIb Selectivity Fold wrt Control: 0.9 fold
[47]
  Kd: 160 nM
[48]
  Kd: 60 nM
[49]
  IIaR-fold: 1.9 fold

## v12 (IIb-specific comparator, symmetrical E233D_G237D_P238D_H268D_P271G_A330R), anti-CD19 (4G7) full-size antibody
[50]
  Kd: 460 nM
[51]
  Kd: 13 nM
[52]
  IIb Selectivity (IIb-Fold/IIaR-Fold): 106 fold

## Variant 16463, wild-type control one-armed trastuzumab antibody with heterodimeric IgG1 Fc
[53]
  IIb/IIaR Selectivity (IIb-Fold/IIaR-Fold): 1
[54]
  IIaR-fold (fold change in affinity over wild-type): 1 fold
[55]
  IIb-fold (fold change in affinity over wild-type): 1 fold

## v16463, wild-type one-armed trastuzumab antibody (OAA format)
[56]
  Kd: 310 nM
[57]
  Kd: 1400 nM

Reference: US20240294646A1
